Like-named read-outs stand apart in the source and are kept apart here.
Key:
[1] = target: recombinant gp120 used for isothermal titration calorimetry (strain not stated) (HIV-1 (strain not stated)) (UniProt P04578); test: ITC; 102 µM SVN titrated into the cell with 1.6 µM gp120; 30 °C; 10 mM sodium phosphate pH 7.4, 3 mM sodium azide; fitted to one set of identical sites
[2] = target: recombinant gp120 used for isothermal titration calorimetry (strain not stated) (HIV-1 (strain not stated)) (UniProt P04578); test: as above; remark: listed apart in the source

scytovirin (SVN), full-size, E. coli-produced, sequence (P86041 whole entry): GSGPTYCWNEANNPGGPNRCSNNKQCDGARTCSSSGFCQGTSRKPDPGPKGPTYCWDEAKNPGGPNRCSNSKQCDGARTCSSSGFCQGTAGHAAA

scytovirin (SVN), full-size, E. coli-produced (from UniProt P86041 1-95) (natural protein)
Kd [1]: 1630 nM | dH [1]: -6.45 kcal/mol | stoichiometry N (SVN per gp120) [1]: 5 | Kd [2]: 1500 nM
